Source: patent US20090291081A1 (published 2009)
Each block holds one binder with its values, some of them ahead of it.

Legend:
human IL-1α = target: T1, human IL-1α (human, UniProt P01583 113-271); assay: yeast surface display titration (FACS); unlabelled IL-1α
T1 chain: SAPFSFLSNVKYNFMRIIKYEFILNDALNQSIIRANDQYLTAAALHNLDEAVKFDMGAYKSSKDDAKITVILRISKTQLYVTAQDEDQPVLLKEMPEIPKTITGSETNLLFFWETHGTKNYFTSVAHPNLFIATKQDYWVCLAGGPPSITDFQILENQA

Bio-IL-1a = assay: yeast surface display titration (FACS); biotinylated IL-1α

EC50 (human IL-1α): 0.664 nM
B1: ABT2-108-538x/ABT1-95-15 scFv on yeast surface (scFv, V domains shown)
VH: EVQLLESGGGLVQPGGSLRLSCAASGFTFADEGMMWVRQAPGKGLEWVSRITYSGKNTYYADSVKGRFTISRDNSKNTLYLQMNSLRAEDTAVYYCAKYTGRILGHHLFDYWGQGTLVTVSS
VL: DIQMTQSPSSLSASVGDRVTITCRASQPIVRNLRWYQQKPGKAPKLLIYSSSYLEPGVPSRFSGSGSGTDFTLTISSLQPEDFATYHCQQGYRWPVTFGQGTKVEIK

EC50 (Bio-IL-1a): 0.664 nM
B2: ABT2-108-538x/ABT1-95-15 scFv (scFv, V domains shown)
VH: B1 VH
VL: B1 VL
